Experimental data reported in the DeepSol protein solubility set.

Experiment: soluble on expression in E. coli; label from the status in PepcDB or PDB records

Sequence | soluble on expression in E. coli
MPPQPQIMVDLQMEQVMPNPDLKNIARLISQDPGLSGALLKLVNSPFFGLANRITSIQRAVNLLGSRSVINLINAQSIKGEMSDDTIVTLNRFWDTAQDVAMSCLSLAKRIGYESVDEAYALGLFHNCGIPLMLKRFPHYMAVLEEAYAAASDERRVVDTENRVLNTNHAVVGYYTARSWRLPEHVCEAIANHHNALSIFGDESARDTQLKNLLAILKMAEHICGSHRVLGNQPEDHEWNSIGALVLDYVGLTDYDFENLKGSILELGVGQGSY | not soluble
MPPRRYNPDTRRDELLERINLDIPGAVAQALREDLGGTVDANNDITAKLLPENSRSHATVITRENGVFCGKRWVEEVFIQLAGDDVTIIWHVDDGDVINANQSLFELEGPSRVLLTGERTALNFVQTLSGVASKVRHYVELLEGTNTQLLDTRKTLPGLRSALKYAVLCGGGANHRLGLSDAFLIKENHIIASGSVRQAVEKASWLHPDAPVEVEVENLEELDEALKAGADIIMLDNFETEQMREAVKRTNGKALLEVSGNVTDKTLREFAETGVDFISVGALTKHVQALDLSMRFR | soluble
MPQINTVPGPHLRRQVWLRTKSGQRLAYAVSWWDASHVDEYLQNRSLPIWDSLSRLHTELYRDIQAIYCGHNRTLAKAFGQEGPFWGRHYLFWHDRKPLTLIYEIFSPYLSRYLGELPRPKFELEHHHHHH | not soluble
MPRDPLIGIVGKPSSGKSTTLNSLTDAGAAVGAFPFTTIEPNQATGYLQVECACSRFGKEDLCKPNYGWCSKGKRHIPIKLLDVAGLVPGAHSGRGLGNKFLDDLRHADALIHVVDVSGTTDAEGKNTRGYDPLNDIEWLQDEIRLWVEGNLKKRWGSIVRKHTATKSSIVDTLQAQFGGYGSHAPMIQKALDRLKGLPPLEKWDDEWITRVVKSFMMEKFPTVLALNKIDHPDADKNVSKIMLKYPDTKAVLTSAVTEVFLRKLKKQGFILYEEGTEFVDTFEDEPDKLKPLDDKILNRIENIRDLVLYRFGSTGVVQVLQAATDILGLIPVYTVKNIQTFTGGNGTNVFRDCFLVKRGTPVGKVARYIMGGEVTIASIETVGGVRVSEESLVEPGKNDILGFKIAPRSA | soluble
MPRIEDRLINRTPRNFTIIGNSPNSMSRGKRPHTTPIEVHLLREGIIESQHWAEATVYDDRGRVLMLAGDSTSNAFIRSSLKPFQALAVTSTGTMERYGLTDKDLAIMCGSHQGTIEQARQVFNILWRADIEPQALQCPIPAGQESPLYHGCSGKHAGMLAVCQQQDWPLHSYLQQNSPIQKLILSKVADLLGMPGAELIAAHDDCGAPTYTMELGQIAHLYALLASGQQLGLERVARAMTYYPYFVAGEGCFDTELMQQMEGELVSKSGAEGVQCVGRVGEGLGLAIKVKDGSKRAKYAVAIHLLQQMGWIPPQVAETLSEKFVRLGKYKRLEVIGELAMLLEHHHHHH | not soluble
MPRKAREYPEEGEFVVATVKRIHNYGAFLELDEYPGKEAFMHISEVASTWVRNIRDYLKEGQKVVAKVIRVDPRKGHIDLSLRRVTQQQRKAKLQEFKRAQKAENLLRLAAEKLGKDFEAAWREVWVPLEEEWGEVYAAFEDAAKDGIEVLKGHVPDEWLPVLKEIVENYVEVPTVTIDAEFEITVPKPNGVEIIKEALIRARDRANKEKDIEVKFTYQGAPRYRIDITAPDYYKAEEVLEDIAEEILRVIKQAGGEATLLRKEKRIRKVKKRKK | soluble
MPRSFLVKKHFNASKKPNYSELDTHTVIISPYLYESYSMPVIPQPEILSSGAYSPITVWTTAAPFHAQLPNGLSPLSGYSSSLGRVSPPPPSDTSSKDHSGSESPISDEEERLQSKLSDPHAIEAEKFQCNLCNKTYSTFSGLAKHKQLHCDAQSRKSFSCKYCDKEYVSLGALKMHIRTHTLPCVCKICGKAFSRPWLLQGHIRTHTGEKPFSCPHCNRAFADRSNLRAHLQTHSDVKKYQCKNCSKTFSRMSLLHKHEESGCCVAH | not soluble
MPRTIWSGAISFGLVTVPIHVVSATEDHSVRFHQYHLEDMGRVRVRKYCELEDREVTQDEIGKGYELSKDTVIPVLDEELRELPLPTAKAIEIEAFVPLASIDPMGIGEGYYLQPDGQVAAKPYKLLRQALERSSKVAVAKYAWSGRERLGMLRVREEAIVLHAMRWPDEIRD | not soluble
MPSSIICDVSHEGEASGGPSPSSRISNGFSHTVCDLHHNFPIVKNRRKYHNSISTQSSSSTTTSLERISTSTCTSTSSSASDAIISRAEKDVQTFLVSDESTTGDHEEEEEDDEDGDDESDHNDYDYEDDGERSEHDHEQTDNDDDEDEIEPFVSSWCFAMGTQRSVMSSVGEKAPKSNVKSMEDWELDVVERAHRESHLAELYADLSWRFYTHPPTSFCLARVFLRHGLTGNEGVSSWKLPRKANRRNSSCSSISSVSESSSPSALDESTLTKILPTDNFRGGRGFASPSPPTSLLSEPLSRMDVLSEKIWDYHNKVSQTDEMLQRKLHLRDMLYTAISPVFPLSGLYVVGSSLNGFGNNSSDMDLCLMITNKDLDQKNDAVVVLNLILSTLQYEKFVESQKLILAKVPILRINFAAPFDDITVDLNANNSVAIRNTHLLCYYSSYDWRVRPLVSVVKEWAKRKGINDANKSSFTSYSLVLMVIHFLQCGPTKVLPNLQQSYPNRFSNKVDVRTLNVTMALEEVADDIDQSLSEKTTLGELLIGFLDYYANEFNYDRDAISIRQGRRVERAALAVRPKIHSNSEGDKETPPPSSSASTSSIHNGGTPGIPMHHSISNPHFWRSQWRCVCIEEPFTNSNTAHSIYDEMVFEAIKKAFREAHGELQHNHDLDKLMECEPIKASTTNTGAAVFAATYEGERPLAQQPNTIACASLRVLNSIPVSSGPGHYHYQQQSNQNLSRPQRPGSNQGYQMNNNRGFNGNNQQQHQNRRSFNNQSSSNPGNGSTGPRSSRSNENVRDSSRQQNSQKGSSGVSVSKENVASTTGVPVDKKQQNSNRKDDGNRTKRSPMVQSPEPAKTKSEKTPMASSNVSQ | not soluble
MPSSRRVRSRCCAFGITKRFACIRPACQRARMDAQMTNFETRLRENAAKTEALLGHLLSGEARADEITRPQNLLEAMRHGVLNGGKRLRPFLVIESVALLGGDAEAGLHVGAALECLHCYSLVHDDLPAMDDDDLRRGQPTVHRKFDEATAILAGDSLLTLAFDIIASDDNPLAAERKAALVISLARAAGIGGMAGGQALDLAAEKKAPDEDGIITLQAMKTGALLRFACEAGAIIAGSNQAERQRLRLFGEKIGLSFQLADDLLDLTADAATMGKATGKDAARGKGTLVALRGEAWAREKLQE | soluble
MPSSTTVPTRRGLVSGPSSSDAHGDMPAVSVIMNCLNCERDLAEAIGSVFAQTFDDWEIVFWDNGSTDRSAEIAQGFGERVRYFRATETVPLGAARNLAIAKARGEFIAFLDCDDVWLPEKLERQVALFRANPRVGLVCTDTVMFTGAKDLNRLFEHAHPARGHVFRELMTTQWISMSSAVIRRNALDGMDHWFDESLNVCEEADVFYRIAWDWELDHVDAPLTRWRVHGANTTFRKFGQFAEETLRILDKHRAMYPGYDERYADLVALLRRRAAFQRAVALWREGRGAEARATIAPFDASPKFRLFRLATYLPGALFDPLARLYFALPAFLRRLEHHHHHH | not soluble
MPTAIDLFAGLGGWSNGARRAGVKVLWAANHWPVAVGWHSANHPDAIHVCQDLHQADWSKVPAHGIMLASPCCQGHSKARGKKSGNAQHDSSRSTAWAVVSAAEYHSPEVVLVENVEEFTDWALYPAWSQAMAALGYMIAPHVVDCADLGVPQHRVRLFLVCTRSKAPLNLQLHQRQHVPASSFIDFDSGKWSPIVKPSRAESTLTRVKNGRQRFGERFIMPYYRSGSGLTGSCIERPIGTITKLDRWALVRGNEMRMLSADEGLAGMSFDADTKRPASHRLTMHMAGTSTNPVG | not soluble
MPTDDKARPRKTLTIKKTAPAAPSADDEAPRRKRIGARARLVAQMERAKEQQHAPRRKAPRQDAAHQDDAPRRRPRAPREAEIFPVYAPCPQGIEEALAAEMQALGFEDARAGRAGCAFSTDWAGVQRANLYSRLATRILVQVAQADIGHEDDILDLARSVPWERWFGPDETLRVDTSAIKSPVKSLQYCNLRAKDGICDRLREVEGARPDIDTVRPDARVHLFLSGTTATLYLDTSGESLFKRGWRLDKGEAPLRENLAAGMLALAGWDPAEPLLDPFCGSGTILIEAAWIALGVPPGISRPFGFERLRNHDARRWQDLKADARTRIQTQLETPLFGYDLDPRAIQYAQANAERAWLTADTIRFEVGDARHLAAPADHGWIVTNPPYGERMETEDDSEMWRDWAACLKRQFAGWQVHVISSDMTLPQRLRLKPLRRVPLHNGALDCRLFGFELVPASYRKPA | not soluble
